Among the data in article PMC9241633 are Kd values, retold here.

This data set has as its system KbvR (Klebsiella pneumoniae). The experiment in a line: MST. The conditions noted are these: MST: constant labeled KbvR, 2-fold DNA dilution series (16 samples), 30 min incubation at room temperature, measured at 30 C, 80% excitation power, medium LED ….

Take ompK36 promoter region: the Kd (commonly the concentration at which binding is half-saturated) stood at 450 nM.
